{"source": "the supplement of paper PMC10724198", "note": "± gives the standard deviation of the averaged measurements.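 Further: PSI is a weighted mean of sequencing reads over stability bins, variants kept only with over 10 reads, mCherry proximal and sfGFP distal, peptide attached via GGGS linker.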"}
{"system": "Saccharomyces cerevisiae", "assay": "protein stability index of tFT-peptide fusion (C-terminal peptide) (PSI (0-1 scale)); higher = more stable (slower turnover)", "details": "genetic background: wild type; temperature: 30 C"}
{"sequence": "PRPFAPPPPPHD", "protein stability index": "0.808 ± 0.094"}
{"sequence": "PRPHPPPLPCPP", "protein stability index": "0.714 ± 0.04"}
{"sequence": "PRPLASRITSPA", "protein stability index": "0.692 ± 0.036"}
{"sequence": "PRPLPPPLPCPP", "protein stability index": "0.682 ± 0.015"}
{"sequence": "PRPLPPPPPLST", "protein stability index": "0.654 ± 0.061"}
{"sequence": "PRPLSPLPPSAL", "protein stability index": "0.66 ± 0.05"}
{"sequence": "PRPPAGSFPSSL", "protein stability index": "0.7 ± 0.053"}
{"sequence": "PRPPPPLPPFPP", "protein stability index": "0.6602 ± 0.0011"}
{"sequence": "PRPPPPPPPLPP", "protein stability index": "0.692 ± 0.03"}
{"sequence": "PRPPPPRPPFST", "protein stability index": "0.717 ± 0.01"}
{"sequence": "PRPPPPSPIPPL", "protein stability index": "0.7265 ± 0.0018"}
{"sequence": "PRPPSPPADPAP", "protein stability index": "0.744 ± 0.013"}
{"sequence": "PRPPYPRPPPPP", "protein stability index": "0.725 ± 0.074"}
{"sequence": "PRPSFRPPPPLP", "protein stability index": "0.722 ± 0.011"}
{"sequence": "PRPSPPPVSPRP", "protein stability index": "0.74 ± 0.043"}
{"sequence": "PRRPLSTPTPLV", "protein stability index": "0.666 ± 0.049"}
{"sequence": "PRRPPSSLWPYP", "protein stability index": "0.669 ± 0.044"}
{"sequence": "PRSAPPRRPPTP", "protein stability index": "0.753 ± 0.075"}
{"sequence": "PRSPPPLPPSSL", "protein stability index": "0.705 ± 0.029"}
{"sequence": "PRSPPPPLLSPP", "protein stability index": "0.692 ± 0.037"}
{"sequence": "PRSPPSPPPPPS", "protein stability index": "0.641 ± 0.1"}
{"sequence": "PRSPSLPPLFSP", "protein stability index": "0.718 ± 0.072"}
{"sequence": "PRSSHHPLPSPP", "protein stability index": "0.676 ± 0.071"}
{"sequence": "PRSTLLPRSSSC", "protein stability index": "0.654 ± 0.028"}
{"sequence": "PRSVLGFKMGRF", "protein stability index": "0.715 ± 0.065"}
{"sequence": "PRTPAPAPTPRP", "protein stability index": "0.682 ± 0.017"}
{"sequence": "PRTRLPPQLRLP", "protein stability index": "0.694 ± 0.02"}
{"sequence": "PRYKQSSFAFKK", "protein stability index": "0.669 ± 0.036"}
{"sequence": "PRYSLPTLLSSR", "protein stability index": "0.678 ± 0.051"}
{"sequence": "PRYVQPQCLAQR", "protein stability index": "0.6721 ± 0.0051"}
{"sequence": "PSAPPLSHPAPW", "protein stability index": "0.675 ± 0.047"}
{"sequence": "PSAPRHLIPPPI", "protein stability index": "0.715 ± 0.07"}
{"sequence": "PSAPTNPHARLA", "protein stability index": "0.689 ± 0.051"}
{"sequence": "PSEAPEAPLPRP", "protein stability index": "0.731 ± 0.082"}
{"sequence": "PSELGAGNVMGG", "protein stability index": "0.699 ± 0.027"}
{"sequence": "PSFPSSSCTSPI", "protein stability index": "0.693 ± 0.1"}
{"sequence": "PSGICVLSPRYG", "protein stability index": "0.7 ± 0.016"}
{"sequence": "PSGLRNAHRHRT", "protein stability index": "0.719 ± 0.013"}
{"sequence": "PSGPKAPPHAGR", "protein stability index": "0.6757 ± 0.0058"}
{"sequence": "PSHPLSLFLLFL", "protein stability index": "0.58 ± 0.007"}
{"sequence": "PSIPRTSTRPTL", "protein stability index": "0.706 ± 0.037"}
{"sequence": "PSIPRTTLLSCN", "protein stability index": "0.607 ± 0.037"}
{"sequence": "PSLDCMSIEETT", "protein stability index": "0.679 ± 0.017"}
{"sequence": "PSLGLSIPTPLP", "protein stability index": "0.6849 ± 0.0046"}
{"sequence": "PSLLFILPSPLP", "protein stability index": "0.689 ± 0.015"}
{"sequence": "PSLPFPPTPPPC", "protein stability index": "0.686 ± 0.11"}
{"sequence": "PSLPHSRPRTPT", "protein stability index": "0.707 ± 0.028"}
{"sequence": "PSLPPVPPPPRP", "protein stability index": "0.71 ± 0.04"}
{"sequence": "PSLSSHPALLFI", "protein stability index": "0.752 ± 0.038"}
{"sequence": "PSNPTPLTLLLF", "protein stability index": "0.641 ± 0.017"}
{"sequence": "PSPAPHIPIFFR", "protein stability index": "0.742 ± 0.079"}
{"sequence": "PSPCPPRPPPSP", "protein stability index": "0.753 ± 0.1"}
{"sequence": "PSPDLRAPSSVR", "protein stability index": "0.731 ± 0.024"}
{"sequence": "PSPDPCPLGRTA", "protein stability index": "0.629 ± 0.067"}
{"sequence": "PSPFSPPPPSSP", "protein stability index": "0.736 ± 0.028"}
{"sequence": "PSPGPPATRPAL", "protein stability index": "0.719 ± 0.0036"}
{"sequence": "PSPICFYPLGAS", "protein stability index": "0.71 ± 0.034"}
{"sequence": "PSPIHSRQTQWF", "protein stability index": "0.707 ± 0.015"}
{"sequence": "PSPLPPPPLLPP", "protein stability index": "0.775 ± 0.28"}
{"sequence": "PSPLPRPPPLPL", "protein stability index": "0.656 ± 0.039"}
{"sequence": "PSPLRDLRSTAL", "protein stability index": "0.663 ± 0.031"}
{"sequence": "PSPPFPPPPPPE", "protein stability index": "0.717 ± 0.047"}
{"sequence": "PSPPLPPPAPLL", "protein stability index": "0.718 ± 0.056"}
{"sequence": "PSPPLPPPPSGP", "protein stability index": "0.677 ± 0.067"}
{"sequence": "PSPPLPPPYPLP", "protein stability index": "0.716 ± 0.084"}
{"sequence": "PSPPLPPRPPTL", "protein stability index": "0.743 ± 0.013"}
{"sequence": "PSPPPLPPLPPF", "protein stability index": "0.682 ± 0.029"}
{"sequence": "PSPPPPAPRPPP", "protein stability index": "0.657 ± 0.03"}
{"sequence": "PSPPPPGPPLAL", "protein stability index": "0.632 ± 0.033"}
{"sequence": "PSPPPPLAPCLP", "protein stability index": "0.666 ± 0.038"}
{"sequence": "PSPPPPPPPSVR", "protein stability index": "0.69 ± 0.042"}
{"sequence": "PSPPPPPPTPAS", "protein stability index": "0.655 ± 0.024"}
{"sequence": "PSPPPPTPPVRL", "protein stability index": "0.722 ± 0.11"}
{"sequence": "PSPPPVLLPFFT", "protein stability index": "0.711 ± 0.08"}
{"sequence": "PSPPSPPPPPPT", "protein stability index": "0.749 ± 0.06"}
{"sequence": "PSPPTALCPPPL", "protein stability index": "0.68 ± 0.15"}
{"sequence": "PSPPVPRPPPSP", "protein stability index": "0.647 ± 0.018"}
{"sequence": "PSPPVRPPLPPP", "protein stability index": "0.652 ± 0.15"}
{"sequence": "PSPRPPSPLFPP", "protein stability index": "0.685 ± 0.073"}
{"sequence": "PSPRSGPPLASP", "protein stability index": "0.6896 ± 0.0012"}
{"sequence": "PSPRSPPPSPPS", "protein stability index": "0.747 ± 0.12"}
{"sequence": "PSPSFPPPPLSR", "protein stability index": "0.721 ± 0.073"}
{"sequence": "PSPSLPGRSASP", "protein stability index": "0.727 ± 0.0081"}
{"sequence": "PSPSPPPPPPGL", "protein stability index": "0.681 ± 0.064"}
{"sequence": "PSPTPTMPPPPP", "protein stability index": "0.71 ± 0.01"}
{"sequence": "PSRPPGHPAPKP", "protein stability index": "0.761 ± 0.063"}
{"sequence": "PSRSLSPSPPFS", "protein stability index": "0.691 ± 0.066"}
{"sequence": "PSSAHLPPPPPP", "protein stability index": "0.673 ± 0.014"}
{"sequence": "PSSAPPGSPGHL", "protein stability index": "0.701 ± 0.019"}
{"sequence": "PSSAQKNPNPNT", "protein stability index": "0.701 ± 0.073"}
{"sequence": "PSSLFPPPPSVL", "protein stability index": "0.685 ± 0.029"}
{"sequence": "PSSLPPLSAPSS", "protein stability index": "0.6829 ± 0.0035"}
{"sequence": "PSSPPCPPPLPS", "protein stability index": "0.624 ± 0.02"}
{"sequence": "PSSPPPPPPPPH", "protein stability index": "0.71 ± 0.0097"}
{"sequence": "PSSPPSLPSPLP", "protein stability index": "0.691 ± 0.065"}
{"sequence": "PSSPPSSTSPPL", "protein stability index": "0.633 ± 0.16"}
{"sequence": "PSSPSPPYPFAP", "protein stability index": "0.684 ± 0.016"}
{"sequence": "PSSRSASSSSPA", "protein stability index": "0.705 ± 0.043"}
{"sequence": "PSSSPPLLPPPA", "protein stability index": "0.638 ± 0.026"}
{"sequence": "PSTLQPLQRSPR", "protein stability index": "0.617 ± 0.0014"}
{"sequence": "PSVLPSSCTPSP", "protein stability index": "0.663 ± 0.03"}
